Assay results: patent US20150239929A1 (PORTOLA PHARMACEUTICALS, published 2015)

B1: r-Antidote (fXa derivative, cleaved two-chain polypeptide of SEQ ID NO: 2) (enzyme)
light: ANSFLFWNKYKDGDQCETSPCQNQGKCKDGLGEYTCTCLEGFEGKNCELFTRKLCSLDNGDCDQFCHEEQNSVVCSCARGYTLADNGKACIPTGPYPCGKQTLER
heavy: IVGGQECKDGECPWQALLINEENEGFCGGTILSEFYILTAAHCLYQAKRFKVRVGDRNTEQEEGGEAVHEVEVVIKHNRFTKETYDFDIAVLRLKTPITFRMNVAPACLPERDWAESTLMTQKTGIVSGFGRTHEKGRQSTRLKMLEVPYVDRNSCKLSSSFIITQNMFCAGYDTKQEDACQGDAGGPHVTRFKDTYFVTGIVSWGEGCARKGKYGIYTKVTAFLKWIDRSMKTRGLPKAKSHAPEVITSSPLK
notes: Made in CHO cells; the two chains are linked by a disulfide bond; also called target protein; functional protein

Experiments:
[1] = target: Aprotinin, immobilised on agarose (Aprotinin-Agarose, catalog #A2268) (UniProt P00974 36-93); experiment: affinity column loading, 1 mL resin, 20 mM Tris/150 mM NaCl pH 7.4
Experimental: Commercially available affinity resins were screened for their efficacy in purifying r-Antidote. Various affinity resins were packed into a column (such as a Tricorn column, GE) with 1 mL of resin. Following sanitization according to manufacturer's recommendations, the column was equilibrated with 20 mM Tris/150 mM NaCl at pH 7.4, followed by testing their ability to bind r-Antidote in the same buffer. r-Antidote at a concentration of 0.145 mg/mL in PBS (Phosphate Buffered Saline), was loaded onto the column at a flow rate of 1 mL/min by injection (1 mL).

[2] = target: B1; experiment: affinity column loading of purified r-Antidote, 1 mL resin, 20 mM Tris/150 mM NaCl pH 7.4

B1: no binding (tested: 0.145 mg/mL (1 mL injected)) [1].

B2: Soybean Trypsin Inhibitor (STI), immobilised on affinity resin (other, Glycine max (soybean), UniProt P01070 25-205, looked up)
chain: DFVLDNEGNPLENGGTYYILSDITAFGGIRAAPTGNERCPLTVVQSRNELDKGIGTIISSPYRIRFIAEGHPLSLKFDSFAVIMLCVGIPTEWSVVEDLPEGPAVKIGENKDAMDGWFRLERVSDDEFNNYKLVFCPQQAEDDKCGDIGISIDHDDGTRRLVVSKNKPLVVQFQKLDKESL
notes: also called STI-Agarose
B2: binds [2].
